Measurements published in article PMC10030117 (eLife, 2023).

How the values were obtained:
SARS-2 HexaPro S2 [1] = target: T1, SARS-2 HexaPro S2 (SARS-CoV-2 Wuhan-Hu-1, HexaPro, proline substitution at position 817 | proline substitution at position 892 | …); assay: BLI + SPR; conditions: both partners purified
SARS-2 HexaPro S2 [2] = target: T1, SARS-2 HexaPro S2; assay: cryo-EM structure; conditions: both partners purified
[3] = target: T2, SARS-2 spike (2P-stabilized ectodomain with foldon) (SARS-CoV-2 Wuhan-Hu-1, UniProt P0DTC2, K986 substituted with proline | V987 substituted with proline); assay: far-Western, overlay or dot blot; conditions: both partners purified
SARS-2 HexaPro spike = SARS-2 HexaPro spike (SARS-CoV-2 Wuhan-Hu-1, HexaPro; T4 …, proline substitution at position 817 | proline substitution at position 892 | …); assay: BLI; conditions: both partners purified
[4] = target: Authentic wild-type SARS-2 spike, full-length unstabilized, on the cell surface (Severe acute respiratory syndrome …, UniProt P0DTC2); assay: flow cytometry on cells; conditions: one partner purified
[5] = target: T2, SARS-2 spike (2P-stabilized ectodomain …); assay: ELISA
[6] = target: SARS-2 4P-DS spike (4P with an additional stabilizing disulfide) (SARS-CoV-2 Wuhan-Hu-1, UniProt P0DTC2, disulfide bond between amino acids 965 and 1003 (965) | disulfide bond between …, disulfide bond between amino acids 965 and 1003; Alexa Fluor 647 label in the yeast display experiment); assay: SPR; conditions: both partners purified

B1: 3A3 Fab (Fab, V domains shown)
VH: QVQLQQSGAELLKPGASVKLSCTASGFNIKDTYIHWLKQRPEQGLEWIGRIGPAIGNTIYAPKFQGKATITTDTSSNTAYLQLSSLTSEDTAVYYCARYYGSSYYYFDYWGQGTTLTVSS
VL: DIVMTQSAPSVPVTPGESVSISCRSSKSLLHSNGNTYLYWFLQRPGQSPQLLIYRMSNLASGVPDRFSGSGSGTAFTLRISRVEAEDVGVYYCMQYLEYPLTFGAGTKLELK
- Kd (SARS-2 HexaPro S2 [1]): ~3 nM
- stoichiometry N (SARS-2 HexaPro S2 [2]): 1 Fab per S2 protomer

B2: Antibody 3E11, full-length (mouse variable region-human IgG1 constant region chimera) (antibody, V domains shown)
VH: EVQLQQSGTVLARPGASVKMSCKASGYSFTNYWVHWVKQRPGQGLEWIGAIYPGNGDTTYNQKFKDKAKLTAVTSTSSAYMDLSSLTSEDSAVYYCTRRANYGSRYDYWGQGTTLTVSS
VL: DIVMTQSTSSLSASLGDRVTISCRASQGINNYLNWYQQKPDGTVKLLIYHTSRLHSGVPSRFSGSGSGTDYSLTISNLEQEDIATYFCQQGDTLPYTFGGGTKLEIK
notes: IgG1
- binding result [3]: binds

B3: Antibody 3A3, full-length (mouse variable region-human IgG1 constant region chimera) (antibody, V domains shown)
VH: QVQLQQSGAELLKPGASVKLSCTASGFNIKDTYIHWLKQRPEQGLEWIGRIGPAIGNTIYAPKFQGKATITTDTSSNTAYLQLSSLTSEDTAVYYCARYYGSSYYYFDYWGQGTTLTVSS
VL: DIVMTQSAPSVPVTPGESVSISCRSSKSLLHSNGNTYLYWFLQRPGQSPQLLIYRMSNLASGVPDRFSGSGSGTAFTLRISRVEAEDVGVYYCMQYLEYPLTFGAGTKLELK
- kon (SARS-2 HexaPro spike): 800000 ± 100000 M⁻¹ s⁻¹
- binding result [4]: no binding (tested: ~1–300 nM)
- fold worse ELISA EC50 (stressed against fresh) ([5]; both partners purified): ~150 fold

B4: Antibody RAY53, full-length human IgG1 (antibody, V domains shown)
VH: QVQLVQSGAVVLKPGASVKLSCKASGFNIKNTYIHWLKQAPGQRLEWIGRIGPAIGNTIYAPKFQGKATITTDTSASTAYLELSSLRSEDTAVYYCARYYGSSYYYLDYWGQGTTVTVSS
VL: DIVMTQSPLSVPVTPGEPVSISCRSSKSLLHSNGNTYLYWFLQKPGQSPQLLIARMSTLASGVPDRFSGSGSGTAFTLKISRVEAEDVGVYYCMQYLEYPLTFGAGTKLEIK
- Kd [6]: 100 ± 16 nM
- Kd [4]: 100 ± 20 nM
- binding result ([5]; both partners purified): binds

B5: RAY53 Fab (Fab, V domains shown)
VH: QVQLVQSGAVVLKPGASVKLSCKASGFNIKNTYIHWLKQAPGQRLEWIGRIGPAIGNTIYAPKFQGKATITTDTSASTAYLELSSLRSEDTAVYYCARYYGSSYYYLDYWGQGTTVTVSS
VL: DIVMTQSPLSVPVTPGEPVSISCRSSKSLLHSNGNTYLYWFLQKPGQSPQLLIARMSTLASGVPDRFSGSGSGTAFTLKISRVEAEDVGVYYCMQYLEYPLTFGAGTKLEIK
- Kd [6]: 1300 ± 200 nM

B6: 3E11 scFv displayed on M13 phage (scFv, V domains shown)
VH: EVQLQQSGTVLARPGASVKMSCKASGYSFTNYWVHWVKQRPGQGLEWIGAIYPGNGDTTYNQKFKDKAKLTAVTSTSSAYMDLSSLTSEDSAVYYCTRRANYGSRYDYWGQGTTLTVSS
VL: DIVMTQSTSSLSASLGDRVTISCRASQGINNYLNWYQQKPDGTVKLLIYHTSRLHSGVPSRFSGSGSGTDYSLTISNLEQEDIATYFCQQGDTLPYTFGGGTKLEIK
notes: VL-linker-VH order
- binding result ([5]; one partner purified): binds
